Source: the supplement of paper PMC9876800

Test system: peptide library, one residue held at a place counted from the S/T acceptor
Experiment: relative phosphorylation of the sub-library (ratio to the mean residue at this position); higher = residue favoured
Procedure, shortened: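 Relative sub-library phosphorylation is the ratio of each sub-library's signal to the mean residue at that position. The signal came from phosphorimaging of spots on streptavidin membranes, quantified by densitometry, after purified recombinant kinases reacted with biotinylated degenerate peptide sub-libraries in 384-well plates. Reactions held 50 μM peptide and 50 μM ATP spiked with γ-32P-ATP for 90 min under kinase-specific conditions.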

DYRK1A, construct: aa147-185, human (from UniProt Q13627)
relative phosphorylation
Details | at +1 | at +2 | at +3 | at +4 | at -1 | at -2 | at -3 | at -4 | at -5
A fixed | 0.555 | 0.855 | 0.76 | 0.819 | 1.27 | 1.63 | 0.864 | 0.989 | 0.962
D fixed | 0.289 | 0.642 | 0.666 | 0.794 | 0.556 | 0.35 | 0.461 | 0.768 | 0.695
E fixed | 0.286 | 0.461 | 0.598 | 0.768 | 0.59 | 0.348 | 0.372 | 0.879 | 0.674
F fixed | 0.557 | 1.42 | 1.41 | 1.97 | 0.736 | 0.452 | 0.417 | 0.814 | 1.06
G fixed | 0.692 | 1.03 | 1 | 1.09 | 0.983 | 0.826 | 1.08 | 1.06 | 1.1
H fixed | 0.506 | 1.23 | 1.37 | 1.07 | 1.13 | 0.589 | 0.674 | 1.01 | 1.2
I fixed | 0.488 | 1.4 | 0.957 | 1.01 | 0.726 | 0.605 | 0.387 | 0.928 | 1
K fixed | 0.631 | 0.679 | 0.626 | 0.801 | 1.31 | 0.712 | 0.739 | 1.1 | 1.05
L fixed | 0.463 | 1.6 | 1.36 | 1.04 | 0.887 | 0.785 | 0.467 | 0.936 | 0.92
M fixed | 0.554 | 1.29 | 1.24 | 1.23 | 1.21 | 0.659 | 0.456 | 0.964 | 0.918
N fixed | 0.471 | 0.79 | 0.789 | 0.893 | 0.849 | 0.641 | 0.5 | 0.871 | 0.876
P fixed | 8.74 | 0.803 | 1.94 | 0.87 | 1.87 | 4.42 | 0.564 | 1.04 | 1.16
Q fixed | 0.475 | 0.721 | 0.882 | 0.861 | 0.998 | 0.608 | 0.618 | 0.891 | 0.95
R fixed | 0.783 | 0.811 | 0.725 | 0.714 | 1.46 | 2.63 | 8.09 | 2.1 | 1.73
V fixed | 0.537 | 1.27 | 0.761 | 0.86 | 0.907 | 0.805 | 0.366 | 0.726 | 0.767
W fixed | 0.54 | 0.941 | 1.03 | 1.23 | 0.708 | 0.486 | 0.497 | 0.934 | 0.814
Y fixed | 0.432 | 1.06 | 0.877 | 0.976 | 0.815 | 0.454 | 0.444 | 1 | 1.13
pThr fixed | 0.379 | 0.562 | 0.556 | 0.773 | 0.374 | 0.487 | 0.391 | 0.789 | 0.805
pTyr fixed | 0.441 | 0.547 | 0.598 | 0.87 | 0.612 | 0.419 | 0.45 | 0.782 | 0.791

DYRK4, construct: Full length, human (from UniProt Q9NR20)
relative phosphorylation
Details | at +1 | at +2 | at +3 | at +4 | at -1 | at -2 | at -3 | at -4 | at -5
A fixed | 0.514 | 0.92 | 0.735 | 0.738 | 1.25 | 2.4 | 1.05 | 1.07 | 0.995
D fixed | 0.171 | 2.1 | 1.07 | 1.49 | 0.773 | 0.283 | 0.554 | 0.801 | 0.827
E fixed | 0.189 | 1.81 | 0.985 | 1.28 | 0.959 | 0.27 | 0.54 | 0.85 | 0.807
F fixed | 0.166 | 1.03 | 0.935 | 1.27 | 0.671 | 0.366 | 0.464 | 0.725 | 1.09
G fixed | 0.614 | 0.629 | 1.3 | 1.06 | 1.28 | 0.977 | 1.29 | 1.13 | 1.1
H fixed | 0.173 | 1.09 | 0.909 | 1.03 | 0.925 | 0.493 | 0.88 | 0.961 | 1.11
I fixed | 0.268 | 1.35 | 0.696 | 1.09 | 0.73 | 0.781 | 0.491 | 0.939 | 0.9
K fixed | 0.228 | 0.317 | 0.428 | 0.543 | 0.87 | 0.421 | 0.796 | 0.857 | 0.922
L fixed | 0.202 | 1.18 | 1.42 | 0.967 | 0.832 | 0.871 | 0.624 | 0.893 | 0.825
M fixed | 0.21 | 1.23 | 1.12 | 1.19 | 1.16 | 0.844 | 0.647 | 0.888 | 0.78
N fixed | 0.2 | 0.738 | 0.825 | 0.866 | 0.847 | 0.907 | 0.728 | 0.719 | 0.882
P fixed | 12 | 0.629 | 3.2 | 0.896 | 1.71 | 2.89 | 1.05 | 1.3 | 1.02
Q fixed | 0.266 | 0.783 | 0.882 | 0.958 | 0.962 | 0.629 | 0.805 | 0.916 | 1.04
R fixed | 0.93 | 0.367 | 0.554 | 0.672 | 1.41 | 3.18 | 5.51 | 2.49 | 1.98
V fixed | 0.578 | 1.07 | 0.637 | 0.87 | 0.963 | 1.02 | 0.478 | 0.731 | 0.792
W fixed | 0.163 | 0.909 | 0.726 | 1.16 | 0.595 | 0.321 | 0.533 | 0.875 | 0.656
Y fixed | 0.161 | 0.843 | 0.569 | 0.919 | 1.06 | 0.354 | 0.556 | 0.863 | 1.28
pThr fixed | 0.375 | 4.81 | 0.992 | 1.93 | 0.506 | 0.647 | 0.592 | 0.868 | 0.978
pTyr fixed | 0.365 | 3.13 | 1.37 | 2.35 | 1.04 | 0.383 | 0.698 | 0.896 | 1.44
